Measurements from patent publication US20250134947A1, “TRI-, TETRA AND PENTAPEPTIDES, COMPOSITIONS THEREOF AND THEIR USE IN THE THERAPY OF PSORIASIS” (ENUMITA AS, priority 2021, published 2025).

What follows are substances tested against T1, transformation of SerpinB3 to Pso p27 with chymase (Homo sapiens, UniProt P29508) (assay: Test of peptides: inhibition of chymase transformation of SerpinB3 to Pso p27, SDS-gel-electrophoresis). Settings: SerpinB3 2 μg in 35 μl PBS, peptide 5 μl (10 mg/ml) 1 hour at 37C°, then 1 μl chymase over night at 37C°.
T1 construct: made in house; host or cells: Escherichia coli BL21 (DE3) RIPL (Stratagene)
T1 sequence (P29508 1-390): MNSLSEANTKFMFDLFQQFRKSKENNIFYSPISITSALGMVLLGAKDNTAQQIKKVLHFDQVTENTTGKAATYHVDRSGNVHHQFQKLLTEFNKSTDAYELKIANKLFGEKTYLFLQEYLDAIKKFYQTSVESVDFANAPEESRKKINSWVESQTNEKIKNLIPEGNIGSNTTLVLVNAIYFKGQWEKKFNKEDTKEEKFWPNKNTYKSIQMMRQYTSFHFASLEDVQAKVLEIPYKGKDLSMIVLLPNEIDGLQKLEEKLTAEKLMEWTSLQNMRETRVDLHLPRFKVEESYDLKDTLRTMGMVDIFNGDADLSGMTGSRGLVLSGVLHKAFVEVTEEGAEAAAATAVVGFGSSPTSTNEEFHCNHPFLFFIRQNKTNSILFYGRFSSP
Assay type: biochemical
Method: In this Example, peptides were tested in order to find out whether they are able to prevent and/or inhibit the formation of Pso p27. The peptides were purchased from Biomatik Corporation, 4 Third Ave, Kitchener, Ontario, N2C 1N6, Canada, and analyzed with respect to prevention and/or inhibiting potential. The following methods were used:
Expression vector pMCSG7 Serpin B3 (Clone ID: HsCD00343153) was used. Recombinant SerpinB3 was expressed in Escherichia coli BL21 (DE3) RIPL (Stratagene) and purified as described by Lysvand H, Helland R, Hagen L, Slupphaug G, Iversen OJ., “Psoriasis pathogenesis-Pso p27 is generated from SCCA 1 with chymase”, Biochim. Biophys. Acta 1842 (2014) 734-738.
SerpinB3 solved in phosphate-buffered saline (PBS) (2 μg in 35 μl PBS) was incubated with a tripeptide or tetrapeptide 5 μl (10 mg/ml) for 1 hour at 37C°. 1 μl chymase was added and the mixture was incubated over night at 37C°. The solution was analyzed by SDS-gel-electrophoresis.
SDS-gel-electrophoresis was performed as described by Iversen O J, Lysvand H, Hagen L., “The autoantigen Pso p27: a post-translational modification of SCCA molecules”, Autoimmunity 44 (2011) 229-234.

| Substance | prevention and/or inhibition of the cleavage reaction of the serpin molecules SerpinB3/B4, and/or prevention and/or inhibition of the formation of Pso p27 |
| --- | --- |
| Asp-Pro-Glu-Asn (DPEN) [tetrapeptide] | effective |
| Asp-Pro-Glu-Leu (DPEL) [tetrapeptide] | effective |
| Asp-Glu-Pro-Asn (DEPN) [tetrapeptide] | effective |
| Glu-Pro-Asp [EPD] | effective |
| Asp-Pro-Leu-Glu (DPLE) [tetrapeptide] | effective |
| Asp-Glu-Leu-Pro (DELP) [tetrapeptide] | effective |
| Glu-Asp-Leu-Pro (EDLP) [tetrapeptide] | effective |
| Asp-Pro-Glu [DPE] | effective |
| Asp-Asp-Pro [DDP] | effective |
| Asp-Glu-Pro [DEP] | effective |

Results, then the substance that gave them:

| prevention and/or inhibition of the cleavage reaction of the serpin molecules SerpinB3/B4, and/or prevention and/or inhibition of the formation of Pso p27 | Substance |
| --- | --- |
| effective | Glu-Asp-Asn-Pro (EDNP) [tetrapeptide] |
| effective | Glu-Asn-Asp-Pro (ENDP) [tetrapeptide] |
| effective | Asp-Asp-Pro-Lys (DDPK) [tetrapeptide] |
| effective | Asp-Pro-Asn-Glu (DPNE) [tetrapeptide] |
| effective | Asp-Leu-Glu-Pro (DLEP) [tetrapeptide] |
| effective | Asp-Asp-Lys-Pro (DDKP) [tetrapeptide] |
| effective | Asp-Glu-Pro-Leu (DEPL) [tetrapeptide] |
| effective | Asp-Lys-Pro-Asp (DKPD) [tetrapeptide] |
